From US20020137019A1 (NEW YORK UNIVERSITY, published 2002) come the findings set out here.

First the molecules themselves.
B5: ART-37 (LexA DNA binding domain fusion) (other)
chain: MKALTARQQEVFDLIRDHISQTGMPPTRAEIAQRLGFRSPNAAEEHLKALARKGVIEIVSGASRGIRLLQEEEEGLPLVGRVAAGEPLLAQQHIEGHYQVDPSLFKPNADFLLRVSGMSMKDIGIMDGDLLAVHKTQDVRNGQVVVARIDDEVTVKRLKKQGNKVELLPENSEFKPIVVDLRQQSFTIEGLAVGVIRNGDWLEFGTRARFTRGKSALLERALARPRTEVSLSAFALLSPSWYSTARAVFSVAELQSRLAALGRQVGARVLDALVAREKGARRETKVLGALLFVKGAVWKALFGKEADKLEQANDDARTFYIIEREPLINTYISVPKENSTLNCASFTAGIVEAVLTHSGFPAKVTAHWHKGTTLMIKFEEAVIARDRLEGR
notes: Clone from an LNCaP prostate cancer cell cDNA library

Experiment [1] has as its target B42-AR18-500 (rat androgen receptor N-terminus, residues 18-500, fused to the B42 activation domain) (rat) (UniProt P15207). The experiment in a line: cell-based or functional assay.
The target in experiment [2] is T1, B42-AR18-500 (rat androgen receptor N-terminus, residues 18-500, fused to the B42 activation domain) (rat, UniProt P15207 18-500).
T1 construct: range 18-500; Yeast two-hybrid bait, galactose-inducible; also called AR18-500-AD; pJG4-5:AR18-500
T1 sequence (looked up): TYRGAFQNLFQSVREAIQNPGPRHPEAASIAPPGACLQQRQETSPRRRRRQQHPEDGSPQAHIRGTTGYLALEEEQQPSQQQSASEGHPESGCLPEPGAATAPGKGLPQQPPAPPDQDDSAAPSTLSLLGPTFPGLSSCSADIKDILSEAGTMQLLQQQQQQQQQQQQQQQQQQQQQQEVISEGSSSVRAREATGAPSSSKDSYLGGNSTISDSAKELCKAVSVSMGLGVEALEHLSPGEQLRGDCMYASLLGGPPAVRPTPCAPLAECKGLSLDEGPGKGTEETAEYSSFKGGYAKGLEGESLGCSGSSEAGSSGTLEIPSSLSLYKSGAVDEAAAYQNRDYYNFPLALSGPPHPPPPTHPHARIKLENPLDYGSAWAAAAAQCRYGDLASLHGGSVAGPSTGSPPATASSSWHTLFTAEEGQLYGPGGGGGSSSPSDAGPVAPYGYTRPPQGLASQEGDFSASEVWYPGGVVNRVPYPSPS
The experiment in a line: modified yeast two-hybrid, plate beta-galactosidase assay.

Experiment [3] addresses T2, ART-27 (full length, 1-157; LexA DNA binding domain fusion) (human, UniProt P0A7C2 1-202; Q9UBK9 1-157).
T2 construct: also called LexA-ART-27; pEG202:ART-27
The experiment in a line: modified yeast two-hybrid, liquid beta-galactosidase assay.

Experiment [4] deals with T3, ART-5 (LexA DNA binding domain fusion) (UniProt P0A7C2 1-202, limits assumed).
T3 construct: Clone from an LNCaP prostate cancer cell cDNA library
T3 sequence: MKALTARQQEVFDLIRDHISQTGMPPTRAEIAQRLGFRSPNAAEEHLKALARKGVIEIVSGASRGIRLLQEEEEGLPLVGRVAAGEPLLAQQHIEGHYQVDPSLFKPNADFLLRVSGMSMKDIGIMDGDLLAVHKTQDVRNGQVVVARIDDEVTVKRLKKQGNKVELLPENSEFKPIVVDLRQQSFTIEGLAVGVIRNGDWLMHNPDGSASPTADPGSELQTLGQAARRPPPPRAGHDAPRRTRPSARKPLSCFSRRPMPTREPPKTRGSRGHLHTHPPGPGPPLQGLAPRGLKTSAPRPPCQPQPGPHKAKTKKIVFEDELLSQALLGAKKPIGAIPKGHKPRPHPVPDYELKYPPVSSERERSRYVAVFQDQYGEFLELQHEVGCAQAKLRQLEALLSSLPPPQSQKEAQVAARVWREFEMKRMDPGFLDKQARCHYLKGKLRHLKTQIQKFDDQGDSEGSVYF
The experiment in a line: modified yeast two-hybrid, plate beta-galactosidase assay.

Experiment [5] has as its target B5. The description is as above.
Experiment [6] deals with T2, ART-27 (full length, 1-157; LexA DNA …). Described as above.
The target in experiment [7] is T1, B42-AR18-500 (rat androgen receptor …). The experiment in a line: modified yeast two-hybrid screen of a LexA-LNCaP cDNA library.
Experiment [8] deals with T2, ART-27 (full length, 1-157; LexA DNA …). The experiment in a line: modified yeast interaction-trap assay, liquid beta-galactosidase.

In the case of “LexA vector alone (from UniProt P0A7C2 1-202)”, in experiment [1], the quantitative liquid beta-galactosidase assay (modified yeast two-hybrid) (unit of activity) was determined as 1.

B1: LexA-ART-27 1-45 (other, UniProt P0A7C2 1-202, looked up)
chain: MKALTARQQEVFDLIRDHISQTGMPPTRAEIAQRLGFRSPNAAEEHLKALARKGVIEIVSGASRGIRLLQEEEEGLPLVGRVAAGEPLLAQQHIEGHYQVDPSLFKPNADFLLRVSGMSMKDIGIMDGDLLAVHKTQDVRNGQVVVARIDDEVTVKRLKKQGNKVELLPENSEFKPIVVDLRQQSFTIEGLAVGVIRNGDWLMATPPKRRAVEATGEKVLRYETFISDVLQRDLRKVLDHRDKVYEQ
notes: also called ART-27 derivative 1-45
For the molecule B1, in experiment [2], the binding result is recorded as “no binding”.

B2: B42-AR18-156 (receptor, rat, UniProt P15207 18-156, looked up, not shown: large carriers)
chain: TYRGAFQNLFQSVREAIQNPGPRHPEAASIAPPGACLQQRQETSPRRRRRQQHPEDGSPQAHIRGTTGYLALEEEQQPSQQQSASEGHPESGCLPEPGAATAPGKGLPQQPPAPPDQDDSAAPSTLSLLGPTFPGLSSC
As to B2, in experiment [3], the binding result is “no binding”.

B3: rat AR ligand binding domain (AR579-901) in pJG4-5 (receptor, UniProt P15207 579-901, looked up, not shown: large carriers)
chain: ASRNDCTIDKFRRKNCPSCRLRKCYEAGMTLGARKLKKLGNLKLQEEGENSSAGSPTEDPSQKMTVSHIEGYECQPIFLNVLEAIEPGVVCAGHDNNQPDSFAALLSSLNELGERQLVHVVKWAKALPGFRNLHVDDQMAVIQYSWMGLMVFAMGWRSFTNVNSRMLYFAPDLVFNEYRMHKSRMYSQCVRMRHLSQEFGWLQITPQEFLCMKALLLFSIIPVDGLKNQKFFDELRMNYIKELDRIIACKRKNPTSCSRRFYQLTKLLDSVQPIARELHQFTFDLLIKSHMVSVDFPEMMAEIISVQVPKILSGKVKPIYFHT
notes: range 579-901
Regarding B3, the binding result in experiment [4], in experiment [5] and in experiment [6] was “no binding” in each case.

B4: LexA-ART-27 1-67 (other, UniProt P0A7C2 1-202, looked up)
chain: MKALTARQQEVFDLIRDHISQTGMPPTRAEIAQRLGFRSPNAAEEHLKALARKGVIEIVSGASRGIRLLQEEEEGLPLVGRVAAGEPLLAQQHIEGHYQVDPSLFKPNADFLLRVSGMSMKDIGIMDGDLLAVHKTQDVRNGQVVVARIDDEVTVKRLKKQGNKVELLPENSEFKPIVVDLRQQSFTIEGLAVGVIRNGDWLMATPPKRRAVEATGEKVLRYETFISDVLQRDLRKVLDHRDKVYEQLAKYLQLRNVIERLQEAKHSEL
notes: also called ART-27 derivative 1-67
Consider B4, for which, in experiment [2], the binding result is “no binding”.

In the case of B5, in experiment [7], the binding result is on record as “binds”.

B6: B42-AR153-336 (receptor, rat, UniProt P15207 153-336, looked up, not shown: large carriers)
chain: LSSCSADIKDILSEAGTMQLLQQQQQQQQQQQQQQQQQQQQQQEVISEGSSSVRAREATGAPSSSKDSYLGGNSTISDSAKELCKAVSVSMGLGVEALEHLSPGEQLRGDCMYASLLGGPPAVRPTPCAPLAECKGLSLDEGPGKGTEETAEYSSFKGGYAKGLEGESLGCSGSSEAGSSGTLE
With B6, in experiment [8], the binding result is given as “binds”.

B7: LexA-ART-27 46-157 (other, UniProt P0A7C2 1-202, looked up)
chain: MKALTARQQEVFDLIRDHISQTGMPPTRAEIAQRLGFRSPNAAEEHLKALARKGVIEIVSGASRGIRLLQEEEEGLPLVGRVAAGEPLLAQQHIEGHYQVDPSLFKPNADFLLRVSGMSMKDIGIMDGDLLAVHKTQDVRNGQVVVARIDDEVTVKRLKKQGNKVELLPENSEFKPIVVDLRQQSFTIEGLAVGVIRNGDWLLAKYLQLRNVIERLQEAKHSELYMQVDLGCNFFVDTVVPDTSRIYVALGYGFFLELTLAEALKFIDRKSSLLTELSNSLTKDSMNIKAHIHMLLEGLRELQGLQNFPEKPHH
Turning to B7, the binding result in experiment [2] is “no binding”.

B8: LexA-ART-27 68-157 (other, UniProt P0A7C2 1-202, looked up)
chain: MKALTARQQEVFDLIRDHISQTGMPPTRAEIAQRLGFRSPNAAEEHLKALARKGVIEIVSGASRGIRLLQEEEEGLPLVGRVAAGEPLLAQQHIEGHYQVDPSLFKPNADFLLRVSGMSMKDIGIMDGDLLAVHKTQDVRNGQVVVARIDDEVTVKRLKKQGNKVELLPENSEFKPIVVDLRQQSFTIEGLAVGVIRNGDWLYMQVDLGCNFFVDTVVPDTSRIYVALGYGFFLELTLAEALKFIDRKSSLLTELSNSLTKDSMNIKAHIHMLLEGLRELQGLQNFPEKPHH
As for B8, in experiment [2], the binding result is “no binding”.

B9: LexA-ART-27 1-45/127-157 (other, UniProt P0A7C2 1-202, looked up)
chain: MKALTARQQEVFDLIRDHISQTGMPPTRAEIAQRLGFRSPNAAEEHLKALARKGVIEIVSGASRGIRLLQEEEEGLPLVGRVAAGEPLLAQQHIEGHYQVDPSLFKPNADFLLRVSGMSMKDIGIMDGDLLAVHKTQDVRNGQVVVARIDDEVTVKRLKKQGNKVELLPENSEFKPIVVDLRQQSFTIEGLAVGVIRNGDWLMATPPKRRAVEATGEKVLRYETFISDVLQRDLRKVLDHRDKVYEQDSMNIKAHIHMLLEGLRELQGLQNFPEKPHH
notes: The two fragments were joined through a BamHI site
With B9, in experiment [2], the binding result is listed as “no binding”.

B10: LexA-ART-27 127-157 (other, UniProt P0A7C2 1-202, looked up)
chain: MKALTARQQEVFDLIRDHISQTGMPPTRAEIAQRLGFRSPNAAEEHLKALARKGVIEIVSGASRGIRLLQEEEEGLPLVGRVAAGEPLLAQQHIEGHYQVDPSLFKPNADFLLRVSGMSMKDIGIMDGDLLAVHKTQDVRNGQVVVARIDDEVTVKRLKKQGNKVELLPENSEFKPIVVDLRQQSFTIEGLAVGVIRNGDWLDSMNIKAHIHMLLEGLRELQGLQNFPEKPHH
In the case of B10, the binding result in experiment [2] is “no binding”.
